One data set concerns the target T1, GPpep1.
T1 chain: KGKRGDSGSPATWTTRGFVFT

Data set [1] deals with the molecule itself. Briefly: gel filtration HPLC and analytical ultracentrifugation (main population 310±10 kDa). As to the method: FIG. 11. rGPBP and rGPBPΔ26 form very active high molecular weight aggregates. About 300 μg of rGPBP (A) or rGPBPΔ26 (B) were subjected to gel filtration HPLC as described under Material and Methods. Vertical arrowheads and numbers respectively indicate the elution profile and molecular mass (kDa) of the molecular weight standards used. Larger aggregates eluted in the void volume (I), and the bulk of the material present in the samples eluted in the fractionation range of the column as a second peak between the 669 and 158 kDa markers (II). Fifteen microliters of the indicated minute fractions were subjected to SDS-PAGE and Coomasie blue staining. Five microliters of the same fractions were in vitro phosphorylated as described in Materials and Methods, and the reaction stopped by boiling in SDS sample buffer. […]
Gel-filtration HPLC. […] The material was eluted from the column at 0.5 ml/min, monitored at 220 nm and minute fractions collected.
rGPBP and rGPBP-26 exist as very active high molecular weight aggregates. Gel filtration analysis of affinity-purified rGPBP or rGPBPΔ26 yielded two chromatographic peaks (I and II), both displaying higher MW than expected for the individual molecular species, as determined by SDS-PAGE studies (89 kDa and 84 kDa, respectively ) (FIG. 11). […] ATP, and analyzed by immunoblot and autoradiography.

B1: FLAG-tagged recombinant GPBPΔ26 (rGPBPΔ26) (enzyme)
chain: DYKDDDDKMSDNQSWNSSGSEEDPETESGPPVERCGVLSKWTNYIHGWQDRWVVLKNNALSYYKSEDETEYGCRGSICLSKAVITPHDFDECRFDISVNDSVWYLRAQDPDHRQQWIDAIEQHKTESGYGSESSLRRHGSMVSLVSGASGYSATSTSSFKKGHSLREKLAEMETFRDILCRQVDTLQKYFDACADAVSKDELQRDKVVEDDEDDFPTTRSDGDFLHSTNGNKEKLFPHVTPKGINGIDFKGEAITFKATTAGILATLSHCIELMVKREDSWQKRLDKETEKKRRTEEAYKNAMTELKKKSHFGGPDYEEGPNSLINEEEFFDAVEAALDRQDKIEEQSQSEKVRLHWPTSLPSGDAFSSVGTHRFVQKVEEMVQNHMTYSLQDVGGDANWQLVVEEGEMKVYRREVEENGIVLDPLKATHAVKGVTGHEVCNYFWNVDVRNDWETTIENFHVVETLADNAIIIYQTHKRVWPASQRDVLYLSVIRKIPALTENDPETWIVCNFSVDHDSAPLNNRCVRAKINVAMICQTLVSPPEGNQEISRDNILCKITYVANVNPGGWAPASVLRAVAKREYPKFLKRFTSYVQEKTAGKPILF
notes: From pHIL-FLAG-n4'Δ26 in Pichia pastoris, made by deleting the 78-bp exon from pHIL-FLAG-n4'
Consider B1, for which the “trans-phosphorylation activity with GPpep1” value with GPpep1 was “the reduced in-solution auto- and trans-phosphorylation activities displayed by rGPBPΔ26”. Besides, the binding result in data set [1] is listed as “binds”.

Source of the values: patent US20030054488A1 (published 2003).
